Laboratory results reported in patent US20250282833A1.

How the values were obtained:
[1] = molecular target: Anc80 AAV capsid viral protein VP1
[2] = molecular target: AdV5 AVP (human adenovirus C serotype 5) (UniProt P03253)
[3] = molecular target: AdV5 Fiber (human adenovirus C serotype 5) (UniProt P11818)
[4] = molecular target: AdV5 Hexon (human adenovirus C serotype 5) (UniProt P04133)
[5] = molecular target: AdV5 Penton base (human adenovirus C serotype 5) (UniProt P12538)
[6] = molecular target: T1, AdV5 pIIIa (human adenovirus C serotype 5) (UniProt P12537)
T1 sequence: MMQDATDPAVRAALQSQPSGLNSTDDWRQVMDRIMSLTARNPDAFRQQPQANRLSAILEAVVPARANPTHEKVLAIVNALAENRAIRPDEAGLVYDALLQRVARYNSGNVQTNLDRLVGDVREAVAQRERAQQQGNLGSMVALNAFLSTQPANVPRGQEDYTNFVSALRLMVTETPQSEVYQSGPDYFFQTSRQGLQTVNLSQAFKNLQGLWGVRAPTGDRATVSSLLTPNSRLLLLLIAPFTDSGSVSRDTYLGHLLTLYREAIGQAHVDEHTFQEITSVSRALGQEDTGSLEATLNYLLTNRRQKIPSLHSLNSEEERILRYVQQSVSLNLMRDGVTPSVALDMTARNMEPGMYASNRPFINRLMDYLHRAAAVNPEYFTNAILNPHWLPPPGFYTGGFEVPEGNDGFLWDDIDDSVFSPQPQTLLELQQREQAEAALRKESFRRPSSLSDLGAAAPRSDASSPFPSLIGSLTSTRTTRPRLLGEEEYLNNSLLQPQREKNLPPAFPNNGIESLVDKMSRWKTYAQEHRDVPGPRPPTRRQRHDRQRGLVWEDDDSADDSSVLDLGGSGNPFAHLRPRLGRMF

[7] = molecular target: T2, AdV5 pIVa2 (human adenovirus C serotype 5) (UniProt P03271)
T2 sequence: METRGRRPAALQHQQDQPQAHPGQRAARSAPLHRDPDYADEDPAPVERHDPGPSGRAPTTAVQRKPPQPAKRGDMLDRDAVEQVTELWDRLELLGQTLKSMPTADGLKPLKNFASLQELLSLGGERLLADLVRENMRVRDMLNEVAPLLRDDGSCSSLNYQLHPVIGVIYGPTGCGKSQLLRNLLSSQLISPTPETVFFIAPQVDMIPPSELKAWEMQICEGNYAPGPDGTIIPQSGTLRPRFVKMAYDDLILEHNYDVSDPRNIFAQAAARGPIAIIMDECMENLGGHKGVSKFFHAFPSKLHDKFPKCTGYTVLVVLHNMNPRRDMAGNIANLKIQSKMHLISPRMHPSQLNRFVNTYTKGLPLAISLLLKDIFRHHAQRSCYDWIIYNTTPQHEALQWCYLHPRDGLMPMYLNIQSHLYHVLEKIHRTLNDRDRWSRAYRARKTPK

[8] = molecular target: AdV5 pIX (human adenovirus C serotype 5) (UniProt P03281)
[9] = molecular target: AdV5 pTP (human adenovirus C serotype 5) (UniProt P04499)
[10] = molecular target: T3, AdV5 pV (human adenovirus C serotype 5) (UniProt P24938)
T3 sequence: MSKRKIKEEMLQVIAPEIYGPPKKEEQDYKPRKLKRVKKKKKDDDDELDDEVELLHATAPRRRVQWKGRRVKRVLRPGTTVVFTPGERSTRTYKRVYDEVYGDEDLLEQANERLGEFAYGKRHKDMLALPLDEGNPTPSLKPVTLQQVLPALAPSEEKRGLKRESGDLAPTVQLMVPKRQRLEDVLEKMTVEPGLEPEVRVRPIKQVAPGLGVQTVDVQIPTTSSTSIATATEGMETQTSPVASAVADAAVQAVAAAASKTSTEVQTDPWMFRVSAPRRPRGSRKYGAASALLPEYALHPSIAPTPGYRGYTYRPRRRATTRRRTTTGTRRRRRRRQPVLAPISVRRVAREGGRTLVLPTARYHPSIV

[11] = molecular target: AdV5 pVI (human adenovirus C serotype 5) (UniProt P24937)
[12] = molecular target: T4, AdV5 pVII (human adenovirus C serotype 5) (UniProt P68951)
T4 sequence (chain, acetylation at S2 (100.0%)): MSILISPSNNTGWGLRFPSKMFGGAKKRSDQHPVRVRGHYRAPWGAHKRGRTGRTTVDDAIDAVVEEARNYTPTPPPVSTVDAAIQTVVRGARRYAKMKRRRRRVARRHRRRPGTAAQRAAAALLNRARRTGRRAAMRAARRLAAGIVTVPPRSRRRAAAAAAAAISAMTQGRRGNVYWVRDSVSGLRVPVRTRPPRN

[13] = molecular target: AdV5 pVIII (human adenovirus C serotype 5) (UniProt P24936)
[14] = molecular target: T5, AdV5 pµ (human adenovirus C serotype 5) (UniProt Q2KS10)
T5 sequence: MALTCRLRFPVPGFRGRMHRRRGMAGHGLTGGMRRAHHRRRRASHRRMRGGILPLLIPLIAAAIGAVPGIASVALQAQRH

Sequencing grade trypsin, sequence (P00761 9-231 limits assumed): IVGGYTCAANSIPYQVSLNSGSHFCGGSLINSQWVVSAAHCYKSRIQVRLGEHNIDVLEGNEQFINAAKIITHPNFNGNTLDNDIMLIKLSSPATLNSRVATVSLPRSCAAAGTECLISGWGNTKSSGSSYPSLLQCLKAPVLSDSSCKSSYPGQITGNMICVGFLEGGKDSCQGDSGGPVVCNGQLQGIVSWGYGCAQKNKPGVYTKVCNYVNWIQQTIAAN
AdV5 Penton base (human adenovirus C serotype 5), sequence (P12538 whole entry): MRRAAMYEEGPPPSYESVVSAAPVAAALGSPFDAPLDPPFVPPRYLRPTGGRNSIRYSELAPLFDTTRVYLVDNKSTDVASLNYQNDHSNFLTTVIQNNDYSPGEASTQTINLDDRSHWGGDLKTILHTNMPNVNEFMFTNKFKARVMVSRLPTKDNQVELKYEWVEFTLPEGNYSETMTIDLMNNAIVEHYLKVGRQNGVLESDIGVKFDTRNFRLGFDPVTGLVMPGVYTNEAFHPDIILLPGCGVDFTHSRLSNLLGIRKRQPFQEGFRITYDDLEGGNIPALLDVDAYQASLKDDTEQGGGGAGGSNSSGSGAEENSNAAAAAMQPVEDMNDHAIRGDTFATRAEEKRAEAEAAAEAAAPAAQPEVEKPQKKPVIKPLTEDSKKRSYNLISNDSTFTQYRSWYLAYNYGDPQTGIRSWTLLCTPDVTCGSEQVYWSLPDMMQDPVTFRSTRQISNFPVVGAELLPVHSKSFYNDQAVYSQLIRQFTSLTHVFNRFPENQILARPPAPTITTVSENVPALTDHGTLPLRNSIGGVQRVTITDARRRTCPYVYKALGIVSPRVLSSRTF

| Substance | sequence coverage by LC-MS/MS after Asp-N digestion [1] [%] | Sequence Coverage (%) by LC-MS/MS after trypsin digestion [2] [%] | Sequence Coverage (%) by LC-MS/MS after trypsin digestion [3] [%] | Sequence Coverage (%) by LC-MS/MS after trypsin digestion [4] [%] | Sequence Coverage (%) by LC-MS/MS after trypsin digestion [5] [%] | Sequence Coverage (%) by LC-MS/MS after trypsin digestion [6] [%] | Sequence Coverage (%) by LC-MS/MS after trypsin digestion [7] [%] | Sequence Coverage (%) by LC-MS/MS after trypsin digestion [8] [%] | Sequence Coverage (%) by LC-MS/MS after trypsin digestion [9] [%] | Sequence Coverage (%) by LC-MS/MS after trypsin digestion [10] [%] | Sequence Coverage (%) by LC-MS/MS after trypsin digestion [11] [%] | Sequence Coverage (%) by LC-MS/MS after trypsin digestion [12] [%] | Sequence Coverage (%) by LC-MS/MS after trypsin digestion [13] [%] | Sequence Coverage (%) by LC-MS/MS after trypsin digestion [14] [%] |
| --- | --- | --- | --- | --- | --- | --- | --- | --- | --- | --- | --- | --- | --- | --- |
| Asp-N protease (enzyme) | 99.2 |  |  |  |  |  |  |  |  |  |  |  |  |  |
| Sequencing grade trypsin (from UniProt P00761) (enzyme) |  | 91.7 | 89.2 | 91.4 | 98.9 | 99.1 | 84.2 | 99.3 | 55.1 | 94.3 | 98.6 | 91.9 | 93.8 | 92.5 |
